Measurements as given in the supplement of paper PMC9170038.

Tested on: MS2 coat protein
Assay: apparent KD of MS2 coat protein; designed switch direction (-1 OFF switch, 1 ON switch): -1; higher = weaker reporter binding
In short: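 Stalled E. coli RNA polymerase transcribed designed RNA switches on Illumina chips, which were then titrated with SNAP-549-labelled MS2 coat protein, doubling from 0.7 or 1.5 nM to 3 µM. Steps lasted from 0.8–1.5 h at the lowest concentration to 10–20 min at the highest. The apparent KD is each design's median over clusters of curve-fitted normalised fluorescence.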

[1] = input ligand: microRNA oligo, concentration not stated
[2] = Eterna round: R95, input ligand: FMN 200 uM
[3] = Eterna round: R95, input ligand: microRNA oligo, concentration not stated
[4] = Eterna round: R95, input ligand: none

Sequence	apparent KD of MS2 coat protein (input ligand: FMN 200 uM)	apparent KD of MS2 coat protein (input ligand: none)	apparent KD of MS2 coat protein [3]	other results
UCUUUCAUUGUGAGGAUAUGCCCAAAUAAAAGCGGGCAGAAGGCACAUGAGGAUCACCCAUGUCCUGCGGUUUU [salish99_bmx4_r4_149] (Eterna round: R97, puzzle: Brourd's mod of Exclusion 4)	0.177 µM	0.0407 µM		
CUUUUGUGAGGAUAUUAGUAGUAUAUAAUUGGUGAUAUUGCUGAGAAGGCACAUGAGGAUCACCCAUGUACAAC [JR_Ex4_Sub034] (Eterna round: R97, puzzle: Exclusion 4)	0.369 µM	0.441 µM		
CCUCUACAUGAGGAUCACCCAUGUGAGGAUAUAAGAUUGCGAAUUCCGCACUACGGUCUUAGAAGGCGCGUGGA [Riarve] (Eterna round: R96, puzzle: Exclusion 1)	0.0313 µM	0.0203 µM		apparent KD of MS2 coat protein [1]: 0.0148 µM
AGGUGUAGAGGAUAUUUAUUCUUCCACAUGAGGAUCACCCAUGUCCUGGUCACCAAGGACGGAGAAGGCUACACCA [Omei Ex5 D24] (Eterna round: R97, puzzle: Exclusion 5)	0.0574 µM	0.0635 µM		
GUAGUGUGAGGAUAUGGUAAAGAUAAGAUGAUGAAAGAACUCCAGAAGGCACAUGAGGAUCACCCAUGUAGAUU [Mat - Exclusion 4 - Mod of JL - D26] (puzzle: Exclusion 4)			0.0197 µM	apparent KD of MS2 coat protein [2]: 0.0498 µM; apparent KD of MS2 coat protein [4]: 0.026 µM
CAGUACUGAGGAUAUACAUGAGGAUCACCCAUGUGGUCCAGCUAGGAAACUAGCAAAAGUAGAAGGCAGUACUG [salish99_ex3_r3_083] (puzzle: Exclusion 3)			0.0715 µM	apparent KD of MS2 coat protein [2]: 0.0125 µM; apparent KD of MS2 coat protein [4]: 0.217 µM
GGAAAUCAUGUAGGAUAUGCGUGGCGAAGCUAUGCAGAAGGACAUGAGGAUCACCCAUGUGCUUCCGUCUGCGUACAGACGGAA [Mat - Exclusion NG 1 - Mod of JL - D20] (Eterna round: R96, puzzle: Exclusion NG 1)	0.0323 µM	0.186 µM		apparent KD of MS2 coat protein [1]: 0.0779 µM
UUUGAAUAGGUAGGAUAUACUUUCAAUUUUCUUUUCCUUACAUGAGGAUCACCCAUGUUUACAUUGUAGAAGGACCUCAUUGAU [JR_ExcNG2_Sub048] (Eterna round: R96, puzzle: Exclusion NG 2)				apparent KD of MS2 coat protein [1]: 0.193 µM
UUGUUUGUAGUGAGGAUAUCGUUGAGGAAGAGGAUCGAGAAGGCACAUGAGGAUCACCCAUGUUAGAUGUGGUU [JR_BMOE4_Sub082] (puzzle: Brourd's mod of Exclusion 4)			0.0991 µM	
GCCGGAUUUGUGAGGAUAUGCCUAUGGAUACAUAGGCAGAAGGCACAUGAGGAUCACCCAUGUUCCUCACCGGC [JL-BMX4-4.24 Eli mod] (Eterna round: R97, puzzle: Brourd's mod of Exclusion 4)	0.232 µM	0.0298 µM		
CUUUCGUGAGGAUAUCAGUAGUAAAAUAAUAAAAUUACUACUGAGAAGGCACAUGAGGAUCACCCAUGUUCCUC [salish99_ex3_r3_099] (puzzle: Exclusion 4)			0.0249 µM	
AAAUCACAUGAGGAUCACCCAUGUGAGGAUAUGAUACUAUGUACUUCGGUACAUAGUAUCAGAAGGCAUAUGGA [Ex1-3: 32] (Eterna round: R96, puzzle: Exclusion 1)	0.0394 µM	0.0237 µM		apparent KD of MS2 coat protein [1]: 0.0206 µM
GCGAUAAACGAGGAUAUCGUAUCGGAAACGAUACGAGAAGGUGUAACAUGAGGAUCACCCAUGUUCCUCAACGC [Mat - Exclusion 6 - Eli Mod - D65] (puzzle: Exclusion 6)			0.0363 µM	
CUUCGACAUGAGGAUCACCCAUGUCAGGAUAUUGUGUAUCGGGUUUUUUACGGUAAGGCAAGAAGGGAUGUGUG [LRO-Excl1-08] (puzzle: Exclusion 1)			0.0299 µM	
GACUAGUGAGGAUAUAUUUGCAGUGUACCUCGGGUGAUCGCACUUGAGGAUCACCCAAGUAGAAGGCGCGAGGG [EX2 #25] (Eterna round: R97, puzzle: Exclusion 2)	0.0477 µM	0.355 µM		
AGAUAGUCAGGAUAUUAGUAAUAAAAGGAUAAUAAUAUUACUGAGAAGGGACAUGAGGAUCACCCAUGUAAUAU [JR_Ex4_Sub061] (Eterna round: R97, puzzle: Exclusion 4)	0.0445 µM	0.0275 µM		
GCUGGUCGAGGAUAUACAAUCGUGCUUCGGCACGUAAGGUCACAUGAGGAUCACCCAUGUAGAAGGCGACCAGC [E2/2-A2] (Eterna round: R97, puzzle: Exclusion 2)	0.175 µM	0.0309 µM		
ACAAGUUUUUAGAUUCUUAACAUGAGGAUCACCCAUGUGCUCGUCUUGUUGGGCCCGGGCCCGCCGGGCCCGGGCCC (Eterna round: R97, puzzle: Sensor, turn-off variant 1)	0.0605 µM	0.0722 µM		
AUUCAACAUGAGGAUCACCCAUGUGAGGAUAUGCGAGUGUAGACUUCGGUUUGAUAGAGCAGAAGGCGCAGGUA [EX1 #12] (Eterna round: R97, puzzle: Exclusion 1)	0.0359 µM	0.0333 µM		
AGUAACAGAGGAUAUACUGUUUUAUGUAUUUAUUAUUUUAAACAUGAGGAUCACCCAUGUAGAAGGCUGAAUGA [JMF 98] (puzzle: Exclusion 2)			0.0224 µM	
CCUCAACAGUAGGAUAUCAUCAAACUAUUGUGAUGAGAAGGACUGACAUGAGGAUCACCCAUGUUGACGUGAUA [Exclusion 6 - 6:b] (puzzle: Exclusion 6)			0.0478 µM	
CUUUUGUGAGGAUAUCAGUAGUAAAUAUAUAAAAUUACUACUGAGAAGGCACAUGAGGAUCACCCAUGUUCCUC [salish99_ex3_r3_079] (puzzle: Exclusion 4)			0.0388 µM	
GAAGAAGAGAGAAUAGAAAACAUGAGGAUCACCCAUGUUAAGAGAUGAGGGUGUAAUAGGAUUUUUGCUCGUCUUAU (puzzle: Sensor v3, turn-off variant 1)			0.054 µM	apparent KD of MS2 coat protein [2]: 0.0383 µM; apparent KD of MS2 coat protein [4]: 0.0405 µM
UCCCGUCUAUGGAGAUUUUACAUGAGGAUCACCCAUGUUGGGACCGCUCUUUGCUUGUCUUCUCCUACUUCGUGUGU [mod-Gracier #4] (Eterna round: R97, puzzle: Sensor, turn-off variant 1)	0.0827 µM	0.0872 µM		
AAAAAGCUGAGAGGAUAUGGUGCCGAAACGGUGCUAGAAGGCUUUGCAAAAAAACAUGAGGAUCACCCAUGUUCAUGUAGAGAA [AK ExNG1-1.2] (Eterna round: R96, puzzle: Exclusion NG 1)	0.0158 µM	0.0196 µM		apparent KD of MS2 coat protein [1]: 0.0118 µM
CGUCGACAUGUAGGAUAUCUGCACGAUUAGUGCAGAGAAGGACAUGAGGAUCACCCAUGUAGAUCACGACGAAUUAAUUUAAUU [ENG1/6-C1] (Eterna round: R96, puzzle: Exclusion NG 1)	0.476 µM	0.527 µM		apparent KD of MS2 coat protein [1]: 0.298 µM
UUUUACAAGCCAGAUCCUCACAUGAGGAUCACCCAUGUGCUCGUCUGUUUUUGUACUAUCACGUUUGUGAUAGUGUU [Level Boss var2-09] (puzzle: Sensor v3, turn-off variant 1)			0.0146 µM	apparent KD of MS2 coat protein [2]: 0.189 µM; apparent KD of MS2 coat protein [4]: 0.189 µM
